Measurements taken from article doi:10.1101/2021.09.16.460643 (bioRxiv, 2021).
Each block holds one molecule with its values, some of them ahead of it.

How the values were obtained:
[1] = target: receiver domain of ARABIDOPSIS … KINASE 5 (AHK5RD), labelled with Alexa Fluor-488 (Arabidopsis thaliana) (UniProt Q3S4A7); assay: MST
[2] = target: T1, ETR1 fragment comprising both HK and RD domain (ETR1HK-RD) (Arabidopsis thaliana, UniProt P49333 324-738); assay: MST
T1 sequence (looked up): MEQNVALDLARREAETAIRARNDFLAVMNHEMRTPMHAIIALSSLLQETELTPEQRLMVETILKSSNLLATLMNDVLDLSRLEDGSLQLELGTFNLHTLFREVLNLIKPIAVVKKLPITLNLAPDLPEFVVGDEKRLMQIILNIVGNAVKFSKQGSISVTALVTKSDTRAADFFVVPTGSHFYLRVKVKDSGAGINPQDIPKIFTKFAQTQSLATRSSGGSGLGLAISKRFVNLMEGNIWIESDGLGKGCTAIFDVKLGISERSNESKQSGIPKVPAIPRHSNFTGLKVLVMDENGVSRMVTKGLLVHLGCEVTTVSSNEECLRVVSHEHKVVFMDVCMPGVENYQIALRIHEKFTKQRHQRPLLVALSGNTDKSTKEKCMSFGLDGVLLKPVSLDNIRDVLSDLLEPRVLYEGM

- Kd [1]: 166 µM
Molecule: histidine kinase domain of ETHYLENE RESPONSE 1 (ETR1HK) (domain or fragment)

- Kd [2]: 167 ± 50 µM
B1: receiver domain of ARABIDOPSIS … KINASE 5 (AHK5RD), labelled with Alexa Fluor-488 (domain or fragment, Arabidopsis thaliana)
chain: ETSKPKILLVEDNKINIMVAKSMMKQLGHTMDIANNGVEAITAINSSSYDLVLMDVCMPVLDGLKATRLIRSYEETGNWNAAIEAGVDISTSENEQVCMRPTNRLPIIAMTANTLAESSEECYANGMDSFISKPVTLQKLRECLQQYLH
modifications: Alexa Fluor-488 label (site not stated; printed as Alexa-Fluor 484 in the anisotropy methods)
